Test system: T1, Ms6 integrase (Int) (Mycobacterium phage Ms6)
T1 sequence: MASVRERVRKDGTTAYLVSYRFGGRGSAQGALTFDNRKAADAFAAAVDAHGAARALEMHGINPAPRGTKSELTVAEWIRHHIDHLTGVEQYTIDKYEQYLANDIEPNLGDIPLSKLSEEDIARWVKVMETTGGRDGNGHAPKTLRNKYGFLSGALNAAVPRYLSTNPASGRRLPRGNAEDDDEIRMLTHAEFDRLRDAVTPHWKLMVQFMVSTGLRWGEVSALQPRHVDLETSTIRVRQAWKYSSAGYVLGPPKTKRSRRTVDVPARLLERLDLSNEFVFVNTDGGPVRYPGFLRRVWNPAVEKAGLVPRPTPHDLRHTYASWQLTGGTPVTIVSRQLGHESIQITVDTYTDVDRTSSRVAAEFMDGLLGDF
Assay: cell_activity
Conditions: for activity (transformants/ug DNA): M. smegmatis

Substance | activity (transformants/ug DNA) (no integration) | other results
Ms6 attP-int fragment, 1521 bp (primers p13/p10) | – | activity (transformants/ug DNA) (smallest functional cassette): 100000
Ms6 attP-int fragment, 1459 bp (primers p1C/p10) | 0 | –
Ms6 attP-int fragment, 1382 bp (primers pC/p10) | 0 | –
CAGCAGACACCCACATGTCCGTGTTGTCACTGACAACACGGCTCCAGGTTTTCCCAGGTCGCTACAGGTCTAAAAAGGTCGGAACAGAACCACACGGGTGTTTTTTCGCAGGTAAACGCCCATTTCCCCACGATCGAAGGGGTTCGAATCCCCTTAGCTCCACCCAAAACCGCAGGTCAGCGAATCGCCCAGAATCTGACAGCACCGATGACATCACAACGGATAGAATCCGGGTATGGCATCAGTGCGTGAACGGGTCCGCAAAGAC (double strand) [Ms6 attP region, 273 bp (pAV3, primers p13/p2N)] | – | activity (colonies/ug DNA) (integrase in trans from suicide helper pAV4, about): 40000

Reference: patent publication US6833135
